We go through four compounds from PMC8949964, “In Vitro Biological Evaluation of Aprepitant Based ^177Lu-Radioconjugates” (Pharmaceutics, 2022).

Data set [1] is classed as physicochemical. On the procedure: A solution of purified ^177Lu-radioconjugate (around 1 MBq) or ^68Ga-radioconjugate (around 10 MBq) in 100 µL of 0.1M DPBS buffer was added into of 900 µL of 0.1 M DPBS buffer and 1000 µL of N-octanol (saturated with each other), vigorously stirred and centrifuged at 13,500 rpm for 5 min. Then, similar aliquots of both separated phases were taken for radioactivity measurement using a well-type NaI(Tl) detector. The lipophilicity values were expressed as the decimal logarithm of the distribution coefficient, D, which was calculated as a ratio of the radioconjugate radioactivity in the organic phase to that in the aqueous phase. Each experiment was performed in triplicate and the obtained values averaged. In parallel, the aqueous phases were analyzed by HPLC to confirm the stability of the studied radioconjugate during the experiment time.

Another data set has as its target T1, human NK1 receptor (Homo sapiens, UniProt P25103).
T1 construct: expressed in transfected cells; host or cells: CHO-K1 (hNK1R-CHO), gift from Dr. Attila Keresztes and Dr. John M. Streicher
Description: Saturation binding of 177Lu-radioconjugates to hNK1R-CHO cells. The settings on record: maximal binding concentration, 60 min at 37 °C, specific activity 5 MBq/nmol.

“And” between values parts separate entries of the source, which are not always exact repeats. Identical values can stand only once. Like-named read-outs stand apart in the source and are kept apart here. Square brackets hold non-standard residues; d marks the D form. Peptide text beside a SMILES is read from it. * marks the point of attachment. DOTA = O=C(O)CN1CCN(CC(=O)O)CCN(CC(=O)*)CCN(CC(=O)O)CC1; Met(O2) = CS(=O)(=O)CC[C@H](N)C(=O)O; 2Thi = N[C@@H](Cc1cccs1)C(=O)O

T1 sequence (P25103 whole entry): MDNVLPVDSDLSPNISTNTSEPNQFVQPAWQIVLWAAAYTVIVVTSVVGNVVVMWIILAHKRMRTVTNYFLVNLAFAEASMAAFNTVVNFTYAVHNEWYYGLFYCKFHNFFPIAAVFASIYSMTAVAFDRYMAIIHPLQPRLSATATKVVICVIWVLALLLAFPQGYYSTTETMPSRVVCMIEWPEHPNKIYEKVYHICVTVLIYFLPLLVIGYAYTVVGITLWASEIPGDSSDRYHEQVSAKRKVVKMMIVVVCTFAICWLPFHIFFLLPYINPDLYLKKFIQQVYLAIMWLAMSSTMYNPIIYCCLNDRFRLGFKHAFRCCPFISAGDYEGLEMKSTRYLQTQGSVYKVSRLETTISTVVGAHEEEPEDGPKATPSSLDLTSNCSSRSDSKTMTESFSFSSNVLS
Description for human NK1 receptor: Cells were grown in Ham’s F12 medium (Biological Industries, Beit HaEmek, Israel) supplemented with 10% Foetal Bovine Serum (Biological Industries, Beit HaEmek, Israel) and 400 μg/mL G418 (Capricorn Scientific, Ebsdorfergrund, Germany), incubated in a humidified atmosphere with 5% CO2 at 37 °C.
In brief, 10^5 cells per well were seeded into 24-well plates and incubated 24 h before the experiment. Just before the assay, the cells were washed with 37 °C Dulbecco’s PBS and then incubated with different concentrations of an analyzed radioconjugate (0.2–50 nM at a final volume) in the medium, with or without a 1000-fold molar excess of blocker (aprepitant or [Thi^8,Met(O2)^11]SP) in relation to the highest radioconjugate concentration applied for 60 min at 37 °C. After incubation time, the assay medium was collected into plastic tubes for radioactivity measurement and the cells were washed twice with ice-cold Dulbecco’s PBS. Subsequently, the cells were lysed using 1 M NaOH and collected into plastic tubes also for radioactivity measurement.
The radioactivity of collected samples were measured using a Wizard2 2-Detector Gamma Counter (PerkinElmer, Waltham, MA, USA). […] The Kd and BMAX with standard deviations (SD), were calculated using the “One site-total and nonspecific binding” nonlinear regression curve fit (GraphPad Prism 8, GraphPad, San Diego, CA, USA).

`C[C@@H](O[C@H]1OCCN(Cc2nn(CCCCCCCCNC(=O)CN3CCN(CC(=O)O)CCN(CC(=O)O)CCN(CC(=O)O)CC3)c(=O)[nH]2)[C@H]1c1ccc(F)cc1)c1cc(C(F)(F)F)cc(C(F)(F)F)c1` [APT-Oct-DOTA, 2-(8-(2-(1,4,7-tris(carboxymethyl)-1,4,7,10-tetraazacyclododecan-10-yl)acetamido)octyl)-5-([(2R,3S)-2-((R)-1-[3,5-bis(trifluoromethyl)phenyl]ethoxy)-3-(4-fluorophenyl)morpholino]methyl)-1H-1,2,4-triazol-3-one]: the logD – broadly, lipophilicity at a set pH, counting ionised and neutral species – was 1.32 ± 0.04 in data set [1] (pH 7.4, logD 68Ga-) and 1.64 ± 0.02 in data set [1] (pH 7.4, logD 177Lu-).

Turning to `C[C@@H](O[C@H]1OCCN(Cc2nn(CCCCCCCCCCNC(=O)CN3CCN(CC(=O)O)CCN(CC(=O)O)CCN(CC(=O)O)CC3)c(=O)[nH]2)[C@H]1c1ccc(F)cc1)c1cc(C(F)(F)F)cc(C(F)(F)F)c1` [APT-Dec-DOTA, 2-(10-(2-(1,4,7-tris(carboxymethyl)-1,4,7,10-tetraazacyclododecan-10-yl)acetamido)decyl)-5-([(2R,3S)-2-((R)-1-[3,5-bis(trifluoromethyl)phenyl]ethoxy)-3-(4-fluorophenyl)morpholino]methyl)-1H-1,2,4-triazol-3-one], the logD in data set [1] (pH 7.4, logD 68Ga-) stood at 1.6 ± 0.04; in data set [1] (pH 7.4, logD 177Lu-), 1.97 ± 0.02.

Turning to `CC(C)C[C@H](NC(=O)CNC(=O)[C@H](Cc1cccs1)NC(=O)[C@H](Cc1ccccc1)NC(=O)[C@H](CCC(N)=O)NC(=O)[C@H](CCC(N)=O)NC(=O)[C@@H]1CCCN1C(=O)[C@H](CCCCN)NC(=O)[C@@H]1CCCN1C(=O)[C@H](CCCNC(=N)N)NC(=O)CN1CCN(CC(=O)O)CCN(CC(=O)O)CCN(CC(=O)O)CC1)C(=O)N[C@@H](CCS(C)(=O)=O)C(N)=O` [[^177Lu]Lu-DOTA-[Thi^8,Met(O2)^11]SP, metal not drawn] ({DOTA}-RPKPQQF[2Thi]GL[Met(O2)]-NH2; N-terminus and C-terminus assumed), the “BMAX ± SD” value at human NK1 receptor was 0.38 nM and 0.38 ± 0.02 nM.

As for `C[C@@H](O[C@H]1OCCN(Cc2nn(CCCCCCNC(=O)CN3CCN(CC(=O)O)CCN(CC(=O)O)CCN(CC(=O)O)CC3)c(=O)[nH]2)[C@H]1c1ccc(F)cc1)c1cc(C(F)(F)F)cc(C(F)(F)F)c1` [APT-Hex-DOTA, 2-(6-(2-(1,4,7-tris(carboxymethyl)-1,4,7,10-tetraazacyclododecan-10-yl)acetamido)hexyl)-5-([(2R,3S)-2-((R)-1-[3,5-bis(trifluoromethyl)phenyl]ethoxy)-3-(4-fluorophenyl)morpholino]methyl)-1H-1,2,4-triazol-3-one], the log distribution coefficient (logD) was determined as 0.58 ± 0.03 in data set [1] (pH 7.4, logD 68Ga-) and 1.23 ± 0.03 in data set [1] (pH 7.4, logD 177Lu-).
